In the supplement of paper PMC10567573:

B1: ZNF8 (parent)
chain: KPYTCSVCGKSFSRTTCLFLHLRT

Variants of: B1
Assay: protein stability index of a GFP-peptide fusion (GPS, HEK-293T) (PSI 1-6); higher = more stable
Details: c terminus: a fixed tail appended
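Also: lentivirally expressed fusions sorted by FACS into six bins by GFP to DsRed ratio, PSI derived from sequencing read proportions per bin multiplied by bin number.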

Variant | protein stability index
KPYACSVCGKSFSRTTCLFLHLRT [T4A] | 1.43
KPYLCSVCGKSFSRTTCLFLHLRT [T4L] | 2.19
KPYSCSVCGKSFSRTTCLFLHLRT [T4S] | 1.48
KPYCCSVCGKSFSRTTCLFLHLRT [T4C] | 2.1
KPYQCSVCGKSFSRTTCLFLHLRT [T4Q] | 1.49
KPYGCSVCGKSFSRTTCLFLHLRT [T4G] | 2.51
KPYPCSVCGKSFSRTTCLFLHLRT [T4P] | 1.86
KPYVCSVCGKSFSRTTCLFLHLRT [T4V] | 1.69
KPYKCSVCGKSFSRTTCLFLHLRT [T4K] | 2.04
KPYMCSVCGKSFSRTTCLFLHLRT [T4M] | 1.83
KPYHCSVCGKSFSRTTCLFLHLRT [T4H] | 1.8
KPYWCSVCGKSFSRTTCLFLHLRT [T4W] | 1.62
KPYICSVCGKSFSRTTCLFLHLRT [T4I] | 2.36
KPYDCSVCGKSFSRTTCLFLHLRT [T4D] | 2.75
KPYRCSVCGKSFSRTTCLFLHLRT [T4R] | 2.4
KPYNCSVCGKSFSRTTCLFLHLRT [T4N] | 1.67
KPYECSVCGKSFSRTTCLFLHLRT [T4E] | 1.77
KPYFCSVCGKSFSRTTCLFLHLRT [T4F] | 1.9
KPYYCSVCGKSFSRTTCLFLHLRT [T4Y] | 1.63
KPYTCNVCGKSFSRTTCLFLHLRT [S6N] | 2.39
KPYTCDVCGKSFSRTTCLFLHLRT [S6D] | 2.28
KPYTCRVCGKSFSRTTCLFLHLRT [S6R] | 2.14
KPYTCAVCGKSFSRTTCLFLHLRT [S6A] | 2.4
KPYTCYVCGKSFSRTTCLFLHLRT [S6Y] | 1.6

Variant | protein stability index
KPYTCIVCGKSFSRTTCLFLHLRT [S6I] | 1.41
KPYTCEVCGKSFSRTTCLFLHLRT [S6E] | 1.85
KPYTCKVCGKSFSRTTCLFLHLRT [S6K] | 2.46
KPYTCFVCGKSFSRTTCLFLHLRT [S6F] | 2.08
KPYTCWVCGKSFSRTTCLFLHLRT [S6W] | 1.66
KPYTCPVCGKSFSRTTCLFLHLRT [S6P] | 2.25
KPYTCQVCGKSFSRTTCLFLHLRT [S6Q] | 2.13
KPYTCLVCGKSFSRTTCLFLHLRT [S6L] | 1.93
KPYTCVVCGKSFSRTTCLFLHLRT [S6V] | 2.45
KPYTCHVCGKSFSRTTCLFLHLRT [S6H] | 2.15
KPYTCTVCGKSFSRTTCLFLHLRT [S6T] | 1.73
KPYTCMVCGKSFSRTTCLFLHLRT [S6M] | 1.63
KPYTCCVCGKSFSRTTCLFLHLRT [S6C] | 1.71
KPYTCGVCGKSFSRTTCLFLHLRT [S6G] | 2.48
KPMTCSVCGKSFSRTTCLFLHLRT [Y3M] | 2.3
KPGTCSVCGKSFSRTTCLFLHLRT [Y3G] | 1.61
KPCTCSVCGKSFSRTTCLFLHLRT [Y3C] | 1.7
KPVTCSVCGKSFSRTTCLFLHLRT [Y3V] | 2.1
KPQTCSVCGKSFSRTTCLFLHLRT [Y3Q] | 2.01
KPTTCSVCGKSFSRTTCLFLHLRT [Y3T] | 2.4
KPFTCSVCGKSFSRTTCLFLHLRT [Y3F] | 1.4
KPETCSVCGKSFSRTTCLFLHLRT [Y3E] | 1.76
KPATCSVCGKSFSRTTCLFLHLRT [Y3A] | 1.63
KPNTCSVCGKSFSRTTCLFLHLRT [Y3N] | 1.71

Variant | protein stability index
KPWTCSVCGKSFSRTTCLFLHLRT [Y3W] | 1.7
KPPTCSVCGKSFSRTTCLFLHLRT [Y3P] | 1.69
KPLTCSVCGKSFSRTTCLFLHLRT [Y3L] | 2.19
KPHTCSVCGKSFSRTTCLFLHLRT [Y3H] | 2.46
KPKTCSVCGKSFSRTTCLFLHLRT [Y3K] | 1.91
KPITCSVCGKSFSRTTCLFLHLRT [Y3I] | 1.7
KPDTCSVCGKSFSRTTCLFLHLRT [Y3D] | 2.07
KPSTCSVCGKSFSRTTCLFLHLRT [Y3S] | 1.74
KPRTCSVCGKSFSRTTCLFLHLRT [Y3R] | 1.76
KPYTNSVCGKSFSRTTCLFLHLRT [C5N] | 2.43
KPYTYSVCGKSFSRTTCLFLHLRT [C5Y] | 2.21
KPYTWSVCGKSFSRTTCLFLHLRT [C5W] | 2.06
KPYTPSVCGKSFSRTTCLFLHLRT [C5P] | 2.38
KPYTISVCGKSFSRTTCLFLHLRT [C5I] | 3.17
KPYTESVCGKSFSRTTCLFLHLRT [C5E] | 3.3
KPYTLSVCGKSFSRTTCLFLHLRT [C5L] | 3.52
KPYTDSVCGKSFSRTTCLFLHLRT [C5D] | 1.96
KPYTSSVCGKSFSRTTCLFLHLRT [C5S] | 1.56
KPYTKSVCGKSFSRTTCLFLHLRT [C5K] | 3.15
KPYTQSVCGKSFSRTTCLFLHLRT [C5Q] | 2.29
KPYTASVCGKSFSRTTCLFLHLRT [C5A] | 1.97
KPYTTSVCGKSFSRTTCLFLHLRT [C5T] | 3.19
KPYTMSVCGKSFSRTTCLFLHLRT [C5M] | 2.18
KPYTGSVCGKSFSRTTCLFLHLRT [C5G] | 3.6

Variant | protein stability index
KPYTFSVCGKSFSRTTCLFLHLRT [C5F] | 2.46
KPYTCSVCSKSFSRTTCLFLHLRT [G9S] | 1.72
KPYTCSVCQKSFSRTTCLFLHLRT [G9Q] | 1.89
KPYTCSVCTKSFSRTTCLFLHLRT [G9T] | 1.5
KPYTCSVCKKSFSRTTCLFLHLRT [G9K] | 1.87
KPYTCSVCIKSFSRTTCLFLHLRT [G9I] | 2.92
KPYTCSVCNKSFSRTTCLFLHLRT [G9N] | 1.49
KPYTCSVCHKSFSRTTCLFLHLRT [G9H] | 2.24
KPYTCSVCYKSFSRTTCLFLHLRT [G9Y] | 1.97
KPYTCSVCEKSFSRTTCLFLHLRT [G9E] | 1.71
KPYTCSVCDKSFSRTTCLFLHLRT [G9D] | 1.8
KPYTCSVCAKSFSRTTCLFLHLRT [G9A] | 2.76
KPYTCSVCFKSFSRTTCLFLHLRT [G9F] | 2.12
KPYTCSVCRKSFSRTTCLFLHLRT [G9R] | 2.2
KPYTCSVCMKSFSRTTCLFLHLRT [G9M] | 2.38
KPYTCSVCPKSFSRTTCLFLHLRT [G9P] | 1.72
KPYTCSVCLKSFSRTTCLFLHLRT [G9L] | 2.25
KPYTCSVCCKSFSRTTCLFLHLRT [G9C] | 2.43
KDYTCSVCGKSFSRTTCLFLHLRT [P2D] | 2.33
KWYTCSVCGKSFSRTTCLFLHLRT [P2W] | 2.42
KFYTCSVCGKSFSRTTCLFLHLRT [P2F] | 1.48
KTYTCSVCGKSFSRTTCLFLHLRT [P2T] | 2.19
